Usually Kd stands for a measure of binding affinity in units of concentration.

In assay [1] the target is actin filaments (UniProt P68135). The experiment in a line: co-sedimentation.
Assay [2] deals with Actin (Oryctolagus cuniculus) (UniProt P68135). The conditions noted are these: cited from earlier work.
Assay [3] shares this target. The conditions noted are these: cited from earlier work. The source holds these as a separate data set.
Assay [4] addresses actin filaments (UniProt P68135). Nature of the assay: co-sedimentation. This is another data set of the same source.

Read-outs that look alike come from different tables or passages of the source.

In the case of DP260 isoform of dystrophin, in the assay with actin filaments [1], the Kd stood at 6850 nM. Dystrophin (from UniProt P11531): in assay [2], the dissociation constant (Kd) was 300 nM. As for “Dystrophin DysN-R17 (from UniProt P11531)”, in assay [3], the Kd is 760 nM. Take full-length dystrophin, P11531 1-3678: the Kd stood at 152 nM with actin filaments [4] and 110 nM with actin filaments [1].

Values taken from PMC3273627.
